Measured values published in patent US20130171644, “COINCIDENCE DETECTION” (KING'S COLLEGE LONDON, published 2013).

How the values were obtained:
RXR-DBD-EKE-MYC = target: T1, RXR-DBD-EKE-MYC (UniProt P19793 SEQ:260-356); assay: ELONA; RXR alone; monomeric RXR does not bind DR5; conditions: tags: GST, label: 5'-biotin
T1 chain: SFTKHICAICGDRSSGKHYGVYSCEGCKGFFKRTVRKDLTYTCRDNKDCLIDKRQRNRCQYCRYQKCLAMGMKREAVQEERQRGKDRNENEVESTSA
Description: (§1) Method: 96-well microtiter plates were coated with a-EE (Y) and a-MYC (Y) at 10 ng/μl in 100 mM NaHCO3/Na2CO3 (pH 9.6). Excess antibody was removed and wells were blocked using 3% BSA. The biodetectors were then captured in the well as indicated in figures followed by the addition of 50 μl/well of biotinylated-DR5 DNA sequence (BIO-DR5, 5 pmol/μl). Control for specificity is the non-consensus oligo (BIO-non consensus) and un-biotinylated DR5 (competitor) to establish signal specificity. Washes were performed at each step to assure the removal of unbound reagents. Streptavidin-HRP was incubated for 30 min at RT, and after three washes, binding was assessed using TMB substrate. Absorbance was measured at 450 nm. Samples are in duplicate.
(§2) ELISA assays were carried out by coating 500 ng of α-MYC and α-EE antibodies diluted in 100 mM bicarbonate buffer (50 ul/well, pH 9.6). Antibodies were coated for 2 h at RT in a microtiter plate (MaxiSorp, Nunc). The wells were then washed once with 200 ul of PBS buffer (pH 7.3) and incubated 0/N at 4° C. with 200 ul of blocking buffer (PBS+3% BSA). The biodetectors where then added at the concentration of 0.7 pmol/well (50 ul/well in 150 mM NaCl, 50 mM Tris pH 7.6, 10% glycerol and 1% BSA) and incubated for 1 h at RT. […]

RAR-DBD-KEK-S-EE = target: T2, RAR-DBD-KEK-S-EE; assay: ELONA; RAR alone; monomeric RAR does not bind DR5; conditions: tags: GST, label: 5'-biotin
T2 chain: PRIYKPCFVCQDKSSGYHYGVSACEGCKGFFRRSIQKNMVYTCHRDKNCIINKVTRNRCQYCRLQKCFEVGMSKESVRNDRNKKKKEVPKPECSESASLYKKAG
Description: as §1, §2

[1] = target: T3, RXR-DBD-EKE-MYC + RAR-DBD-KEK-S-EE heterodimer (UniProt P19793; SEQ:260-356,SEQ:260-363); assay: ELONA; antibody-captured detectors, streptavidin-HRP readout, RT; conditions: tags: GST, label: 5'-biotin
T3 chain 1: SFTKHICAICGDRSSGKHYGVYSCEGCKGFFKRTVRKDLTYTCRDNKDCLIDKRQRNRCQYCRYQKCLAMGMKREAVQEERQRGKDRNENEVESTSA
T3 chain 2: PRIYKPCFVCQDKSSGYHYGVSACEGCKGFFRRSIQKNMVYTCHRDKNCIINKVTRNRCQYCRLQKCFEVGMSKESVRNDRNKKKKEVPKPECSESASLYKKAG
Description: as §1, §2

RAR-PLCgNSH2-HA-EE = target: T4, RAR-PLCgNSH2-HA-EE; assay: ELONA; single reagent alone; combined RXR/RAR required for signal; conditions: tags: GST, HA-EE-HIS; label: 5'-biotin
T4 chain: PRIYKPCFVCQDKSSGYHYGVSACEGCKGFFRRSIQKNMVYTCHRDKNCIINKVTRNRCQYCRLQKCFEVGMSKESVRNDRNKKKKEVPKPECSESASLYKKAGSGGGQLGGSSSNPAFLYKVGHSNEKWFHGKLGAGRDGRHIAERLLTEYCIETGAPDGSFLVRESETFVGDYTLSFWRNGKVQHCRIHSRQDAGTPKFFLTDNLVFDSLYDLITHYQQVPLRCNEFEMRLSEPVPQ
Description: (§3) Streptavidin was coated for 2 h at RT in a microtiter plate (MaxiSorp, Nunc). The wells were then washed once with 200 ul of 0.8× sodium citrate buffer (0.8×SSC: 120 mM NaCl, 12 mM sodium citrate) and incubated 0/N at 4° C. with 200 μl of blocking buffer (3% BSA in 0.8×SSC). The appropriate biotinylated phospho-peptide/s were then added at the concentration of 1.2 pmol/well in 0.8×SSC with additionally 1% BSA and incubated for 1 h at RT. After washing three times with 0.8×SSC containing 0.1% Tween 20 (0.8×SSC/Tw) a blocking step was carried out using biotin at the concentration of 40 ng/well (160 pmol/well in 0.8×SSC buffer). Biotin was incubated for 10 min at RT. The wells were then washed three times with 200 ul of 0.8×SSC containing 0.1% Tween 20 and the biodetectors were then added at the concentration of 2 pmol/well (50 ul/well in 0.8×SSC buffer, 1% BSA).
(§4) The biodetectors were incubated for 1 h at RT. After washing three times with 200 ul of 0.8×SSC/Tw, 50 μl of biotinylated-DR5 DNA sequence (Biot-DR5, 5 pmol/well in 0.8×SSC/Tw buffer, 1% BSA) were added to the wells and plates were incubated for 1 h at RT. After washing three times with 0.8×SSC/Tw, each well was incubated with Streptavidin-HRP conjugated diluted 1:3,000 in 0.8×SSC/Tw containing 1% BSA. […] The reaction was stopped by adding 100 ul of 2 M H₂SO₄ and the optical density (O.D.) was read at the wavelength of 450 nm.

RXR-Grb2SH2-MYC = assay: as above; conditions: tags: GST, MYC-HIS; label: 5'-biotin
Description: as §3, §4

[2] = target: RXR-Grb2SH2-MYC + RAR-PLCgNSH2-HA-EE heterodimer; assay: ELONA; antibody- or bis-phosphopeptide-captured; peptide assay in 0.8xSSC, RT; conditions: tags: GST, MYC-HIS (RXR), label: 5'-biotin

B1: BIO-DR5 (dsDNA)
DNA 1: TGGTATCTAGTTATTGCTCAGCGTGCCAGGTCACCGAAAGGTCAGAG
DNA 2: CTCTGACCTTTCGGTGACCTGGCACGCTGAGCAATAACTAGATACCA
binding result (RXR-DBD-EKE-MYC): no binding
binding result (RAR-DBD-KEK-S-EE): no binding
binding result [1]: binds
binding result (RAR-PLCgNSH2-HA-EE): no binding
binding result (RXR-Grb2SH2-MYC): no binding
binding result [2]: binds
